Laboratory results reported in the nanobody polyreactivity screen of Harvey et al. (2022).

Assay: yeast display, Sf9 membrane polyspecificity reagent, FACS + sequencing; frameworks hold sequencing errors
In short: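 Using colony PCR, genes from sorted yeast display clones were amplified, then sequenced on MiSeq at 2 × 250 and filtered by CDR length. The clones had been stained with 10% biotinylated, detergent-solubilized Sf9 membrane reagent for 1 hour at 4 °C and sorted by FACS into low and high (top ~1%) gates on anti-HA and streptavidin fluorescence. Polyreactivity labels come from the gate of origin.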

## QVQLVESGGGLVQAGGSLRLSCAASGSTFQYYAMGWYRQAPGKERELVAAITHSGTRTYYADSVKGRFTISRDNAKNTVYLQMNSLKPEDTAVYYCAARGYGKYDYWGQGTQVTVSS
  polyreactivity (PSR sort gate): high polyreactivity

## QVQLVESGGGLVQAGGSLRLSCAASGSTFVGYAMGWYRQAPGKERELVAAISGGDSTYYADSVKGRFTLSRDNAQNTVYLQKNSLNPEDTALYYCAVGWTFDRRGYGYWGQGTQVTVSS
  polyreactivity (PSR sort gate): low polyreactivity

## QVQLVESGGGLGQAGGSLRLSCAASGRIFRYNAMGWYRQAPGKERELVAAITSGTGTNYADSVKGRFTISRDNAKNTVYLQMNSLKPEDTAVYYCNKVRKSYRYDYWGQGTQVTVSS
  polyreactivity (PSR sort gate): low polyreactivity

## QVQLVESGGGLVQAGGSLRLICAASGVSNAKGWYRQAPGKERELVAAISRSGGSTYYADSVKGRFTISRDNAKNTVYIQMNSLKPEDTAVYYCAAGYRTRGLYSRLDWGQGTQVTVSS
  polyreactivity (PSR sort gate): high polyreactivity

## QVQLVESGGGLVQAGGSLRLSCAASGRTINRYAMGCYRHAPGKERELVAAINSVGSTYYADSVKGRFTISRDNAKYTVYLQMNSLKPEDTAVFYCNAVQGSRFGYWGEGTQVTVSS
  polyreactivity (PSR sort gate): high polyreactivity

## QVQLVESGGGLVQAGGSLRLSCAASGSIFPDYDMGWYRQAPGKERELVAAISSSGDSTYYADSVKGRFTISRDIAKNTVYLQMNSLKPEDTAVYYCAVDGTRSTSNGSEFTGYNYWGQGTQVTVSS
  polyreactivity (PSR sort gate): low polyreactivity

## QVQLVESGGGLVQAGGSLRLSCAASGNTFLYYSMGWYRQAPGKEMELVASINLSDGSTYYADSVKGRFTISRDNAKNTVYFQMNSLKPEDTAVYYCAAVYGGYTIYDYWGQGTQVTVSS
  polyreactivity (PSR sort gate): low polyreactivity

## QVQLVESGGGLVQAGGSLRISCAASGRTFKNYSMGWYRQAPGKERELVAAITSGGITNYADSVKGRFTISRDNAKNTVYLQMNRLKPEDTAVYYCNTRRGWRDFDYWGQGTQVTVSS
  polyreactivity (PSR sort gate): low polyreactivity

## QVQLVESGGGLVQAGGTLRVSCAASGSTFTTNAMGWSRQAPGTERELFATISGGGSTYYADSVQGRFTISRDNAKNTVYLQMNSLKPDDTAVYYCATDVQVPGIGRSVYAYEYLGQGTQVTVSS
  polyreactivity (PSR sort gate): low polyreactivity

## QVQLVESGGGLVQAGGSLRLSCAASGFTFTKNAMGWYRQAPGKERELVAAISRGGGRTYYADSVKGRFTISRDNAKNTVYLQMNSLKPEDTAVYYCNVDKVGPGYDYWGQGTQVTVSS
  polyreactivity (PSR sort gate): high polyreactivity

## QDKLVESGGGLVQAGGSLRLSCAASGSILGGYAMGWNRPAPGKAREFVAAISRRGASTFYADSVKGRFTISRDNAKNTVYLQMNCLKPEDTAVYYCNARAYGRIDGHSATFGYWGQGTQVTVSS
  polyreactivity (PSR sort gate): high polyreactivity

## QVQLVESGGGLVQAGGSLRLSCAASGSTFASYAMGWSRQAPGKERELVAAIRWRGGTTYYADSVKGRFTISRDNAKNTVYLQMNSLKPEDTAVYYCNADRYYLYYYWGQGTQVTVSW
  polyreactivity (PSR sort gate): low polyreactivity

## QVQLVESGGGLVQAGGSLRLSCAASGRTFRDNAMGWYRQAPGKDRELVAAIDIDSSTYYADSVEGRFTISRDNAKNTVYLQMNSLKPEDTAVYYCAAESYHDGKGFPDYEYWGQGTQVTVSS
  polyreactivity (PSR sort gate): low polyreactivity

## QVQLVESGGGLVQAGGSLRLSCAASGSTFYSNAMGWYRQAPGKERELVAAITDGDRTNYADSVKGRFTISRDNAKNTVYLQMNSLKPEDTAVYYCAADYAVYLGVSPDYGYWGQGTQVTVSS
  polyreactivity (PSR sort gate): low polyreactivity

## QVQLVESGGGLVQAGGSLRLSCAASGNTFYPYAMGWYRQAPGKERELVATIRGSDDSTYYADSVKGRFTISRDNAKNTVYLQMNSLKPEDTAVYDCAADDVVSTFLRGYVRYDYWGQGTQVTVSS
  polyreactivity (PSR sort gate): high polyreactivity

## QVQLVESGGGLVQAGGSLRLSCAASGRTFRINAMGWYRQAPGKERELVAAINDGGDTYADSVKGRFTISRDNAKNTVYLQMNSLKPEDTAVYYCAVRILTNRWYYGYWGQGTQVTVSS
  polyreactivity (PSR sort gate): low polyreactivity

## QVQLVESGGGLVQAGGSLRLSCAASGGIFEYYAMGWYRQAPGKERELVAAINTGGNTYYADSVKGRFTISRDNAKNTVYLQMNSLKPEDTAVYYCATDPIWYGGYLSGTDYDYWGQGTQVTVSS
  polyreactivity (PSR sort gate): low polyreactivity

## QVQLVESGGGLVQAGGSLRLSCAASGFIFKSYAMGWYRQAPGKERELVAAISGRGGSTYYADSVKGRFTISRDNAKNTVYLQMNSLKPEDPAVYYCNVGPSTYYQYDYWGQGTQVTVSS
  polyreactivity (PSR sort gate): high polyreactivity

## QVQLVESVGGLVQAGGSLRLSCAASGGIFWVYAMGWYRQAPGKERELVAAISNSDTSTSYADSVKGRFTISRDNAKNTVYLQMNSLKPEDTAVYYCNADSPSLSGDYWGQGTQVTVSS
  polyreactivity (PSR sort gate): low polyreactivity

## QVQLVESGGGLVQAGGSLRLSCAASGSTFYRYAMGWYRQAPGKERELVAAISYRGGSTYYADSVKGRFTISRDNAKNTVYLQMNSLKPEDTAVYYCNKRSTRRYDYWGQGTQVTVSS
  polyreactivity (PSR sort gate): high polyreactivity

## QVQIVESGGGLVQAGGSLRLSCAASGIIFGRNTMGWYRQAPGKERELVAGISSNGGSTYYADSVKGRFTISRDNAKNTVYLQMNSLKPEDTAVYYCAAYYNIPDRRRVGYDYWGQGTQVTVSS
  polyreactivity (PSR sort gate): high polyreactivity

## QVQLVESGGGFVQAGGSLRLSCAASGRIFKQYGIGWYRQAPGKERELVAAIRSGDSTNYADSVKGRFTISRDNAKNTVYLQMNSLKPEDTAVYYCARDRPGDYAGYDYWGQGTQVTVSS
  polyreactivity (PSR sort gate): low polyreactivity

## QDQLVESGGGLVQAGGSLRLSCAASVSTFYVYAMGWYRQAPGKERELVAAITRGGSTYYADSVKGRFTISRDNAKNTVYLQMNSLKPEDTAGYYCAADYGSRWGYDYCGQGTQVTVSS
  polyreactivity (PSR sort gate): low polyreactivity

## QVQLVESGGGLVQAGGSLRLSCAASGRIFSYYAMGWYRQAPGKERELVAVISRRGDNTYYADSVKGRFTISRDNAKNTVYLQMNSLKPEDTAVYYCAVQFVFIFYYGYDYWGQGTQVTVSS
  polyreactivity (PSR sort gate): high polyreactivity

## QVQHVESGGGLVQAGGSLRLSCAASGRTFYRNAMGWSRQAPGKERELVARINDGAGTYYADSVKGRFTISRDNAKNTVYLQMNSLKPEDTAVYYCAADYGSKLDYGYWGQGTQVTVSS
  polyreactivity (PSR sort gate): low polyreactivity

## QVELVESGGGLVQAGGSLRLSCAASGFIFEKYTMGWYRQATGKETELVADITWNGGSTYYADSVKGRFTISRDNAKNTVYLQMNSLKPEDNAVYYCAARVGWNQRRYDYWGQGTQVTVSS
  polyreactivity (PSR sort gate): low polyreactivity

## QVQLVESGGGLVPAGGSLRLSCAASGSTGFNAMGWYRQAPGKERELVAAINYSDGSTYYADSVKGRFTISRDNAKNTVYLQMNSLKPEDTAVYYCNAGSSKDDSYYSYGYWGQGTQVTVSS
  polyreactivity (PSR sort gate): low polyreactivity

## QVQLVESGGGLVQAGGSLRLSCAASGRTFGYNAMGWYRQAPGKERELVAAISYSGGRTYYADSVKGRFTISRDNAKNTVYLQMNSLKPEDTAVYYCAAKNPYKYDYWGQGTQVTVSS
  polyreactivity (PSR sort gate): high polyreactivity

## QVQLVESGGGLVQAGGSLRLSCAASGRIFGLYLGWYRQAPGKERELVATITWRGGSTYYADSVKGRFTISRDNAKNTVYLHLNSVKPEDTEVYYCAARGYRGRMGYWGQGTQVTVSS
  polyreactivity (PSR sort gate): low polyreactivity

## QVKLVESGGGLVQAGGSLRLSCAASGFTFNRYAMGWYRQAPGKERELVAAISWSGGSTYYADSVKGRFTISRDNAKNTVYLQMNSLKPEDTAVYYCAAATAYYRYRGGYDYWGQGTQVTVSS
  polyreactivity (PSR sort gate): high polyreactivity

## QVQLVESGGGLVQAGGSLRLSCAASGSIFPSYAMGWYRQAPGKERELVATIGRGGTTNYADSVKGRFTISRDNAKNTVYLQMNSLKPEDTAVYYCNAERIWRYKYGYDYWGQGTQVTVSS
  polyreactivity (PSR sort gate): high polyreactivity

## QVQLVDSAGGLVQAGGSLRLSCAASGSIINSNAMGWYRQAPGKERELVAAINWRGGSTYYADSVKGRFTISRDNAKNTVYLQMNSLKPEDTAVYYCNALRRAPRAEYYYGGQGTQVTVSS
  polyreactivity (PSR sort gate): high polyreactivity

## QVQLVESGGGLVQAGGSLRLSCAASGYILPKNTMGWYRQAPGKERELVAAISWSGGSTFYADSVKGRFTISRDNAKNTVYLQMNSLKPEDTAVYYCAADRYWSWYYRYDYWGQGTQVTVSS
  polyreactivity (PSR sort gate): low polyreactivity

## QVHLVESGVGLVQAGGTLRLSCAASGRTFRVYALVWYRQAPGKERELVAAITWNGGSTYYADSVKGRFTISRDNAKNNVYLQMNRLKPEDTAVYYSAAARYAYNIWSGAYDYWGQGTQVTVSS
  polyreactivity (PSR sort gate): high polyreactivity

## QVQLVESGGGLVQAGGSLRLSCAASGRIFPWYAMGWYRQAPGKERELVAAISWSGGRTYYADSVKGRFTISRDNAKITVYLQMNSLKPEDTAVYYCNTGTSGRFLSFGNFDYWGQGTQVTVSS
  polyreactivity (PSR sort gate): high polyreactivity

## QVQLVESGGGLVQAGGSLRLSCSASGRIFVDNALGWYRQAPGKERELVATITSTGSTNYADSEKGRFTISRDNGMNTFYLQMNSLKPEDTAFYYCNADGIMQDYDYWGQVTQVTVSS
  polyreactivity (PSR sort gate): low polyreactivity

## QVQLGESGGGLVQAGGRLRLSCAASGFTFNTYAMGWYRQAPGKVRALVATITSDGSTTYADSVKGRFTISRDNAKNTVNLQMNSLKPEDTAVYYFNARVWVHRYYYYFTHIITYDYWGQGTQVTVSS
  polyreactivity (PSR sort gate): low polyreactivity

## QVQLVESGGGLVQAGGSLRLSCAASGRTFYSYAMGWYRQAPGKEREWVATITNGDTTNYADSVKGRFTISRDNAKNTVYLQMNSLKPEDTAVYYCAKDISPGYDEYDYWGQGTQVTVSS
  polyreactivity (PSR sort gate): low polyreactivity

## QVQLVESGGGLVQAGGSLRLSCAASGIIFGENAMGWYRQAPGKERELVAAINSVGSTYYADSVKGRFTISRDNAKNTVYLQMNSLKPEDTAVYYCAAESWFLRWYRYDYWGQGTQVTVSS
  polyreactivity (PSR sort gate): low polyreactivity

## QVQLVESGGGLVQAGGSLRLSCAASGSTFYSYAMGWYRQAPGKEREFVAVISWSGGRTRYADSVKGRFTISRDNAKNTVYLQMNSLKPEDTAVYYCNARKWGYSPHRKGDRHFEYWGQGTQVTVSS
  polyreactivity (PSR sort gate): low polyreactivity

## QVQLVESGVGLVQAGGSLRLSCAASGGTFGYYVMGWYRQATGKESELVAAITSGGSTKYADSVKGRFTISRDNAKNTVYLQMNSLNPEDTAVYYCAADVTRREPYQSYDFWGQGTQVTVSS
  polyreactivity (PSR sort gate): low polyreactivity

## QVQLVESGGGLVQAGGSLRLSCAASGLTFRFYTMGWDRQAPGKERELVAAISTSGGSTYYADSVKGRFTISRDNAKNTVYLQMNSLKPEDTAVYYCNAVYALNGYDYWGQGTQVTVSS
  polyreactivity (PSR sort gate): low polyreactivity

## QVQLVESGGGLVHAGGSLRLSCAASGRIFSPYARGWYRQAPGKERELDAAMSGSRGRTYYADSVKGRFTISRDNAKNTEYLLMNRLKPEDTADYYCAAYRAITRANYLDYWGQGTQVTVSS
  polyreactivity (PSR sort gate): high polyreactivity
